{"source": "patent US20250382602", "key": {"[1]": {"target": "T1, Dda 1993 C114V C114V (Enterobacteria phage T4) (UniProt P32270)", "T1 sequence": "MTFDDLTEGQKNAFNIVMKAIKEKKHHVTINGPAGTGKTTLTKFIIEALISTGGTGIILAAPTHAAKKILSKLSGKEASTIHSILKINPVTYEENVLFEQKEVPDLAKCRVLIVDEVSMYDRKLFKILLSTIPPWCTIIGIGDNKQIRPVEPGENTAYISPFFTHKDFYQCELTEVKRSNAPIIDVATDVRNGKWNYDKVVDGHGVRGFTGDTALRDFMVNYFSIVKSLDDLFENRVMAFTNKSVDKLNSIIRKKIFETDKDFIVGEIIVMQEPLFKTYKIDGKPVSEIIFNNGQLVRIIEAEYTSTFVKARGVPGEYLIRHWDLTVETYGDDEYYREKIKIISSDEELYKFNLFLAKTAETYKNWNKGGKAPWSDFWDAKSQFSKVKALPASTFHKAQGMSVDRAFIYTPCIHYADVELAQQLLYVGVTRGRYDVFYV", "settings": "nanopore translocation; background mutations not given"}, "[2]": {"target": "T2, Dda 1993 C114I C114I (Enterobacteria phage T4) (UniProt P32270)", "T2 sequence": "T1 sequence with V114I", "settings": "nanopore translocation; background mutations not given"}, "[3]": {"target": "T3, Dda 1993 C114P C114P (Enterobacteria phage T4) (UniProt P32270)", "T3 sequence": "T1 sequence with V114P", "settings": "nanopore translocation; background mutations not given"}, "[4]": {"target": "T4, Dda 1993 K358M K358M (Enterobacteria phage T4) (UniProt P32270)", "T4 sequence": "T1 sequence with V114C, K358M", "settings": "nanopore translocation, FLO-MIN106; background mutations not given"}, "[5]": {"target": "T5, Dda 1993 K358E K358E (Enterobacteria phage T4) (UniProt P32270)", "T5 sequence": "T1 sequence with V114C, K358E", "settings": "nanopore translocation, FLO-MIN106; background mutations not given"}, "[6]": {"target": "T6, Dda 1993 K358L K358L (Enterobacteria phage T4) (UniProt P32270)", "T6 sequence": "T1 sequence with V114C, K358L", "settings": "nanopore translocation, FLO-MIN106; background mutations not given"}}, "note": "Changes are numbered by the printed parent chain."}
{"substance": "barcoded 3.6 kb DNA analyte ligated to sequencing Y adaptor", "values": [{"measurement": "activity (bps speed delta vs control)", "setting": "[1]", "value": 26}, {"measurement": "activity (bps speed delta vs control)", "setting": "[2]", "value": 93.7}, {"measurement": "activity (bps speed delta vs control)", "setting": "[3]", "value": 84.5}, {"measurement": "activity (bps speed delta vs control)", "setting": "[4]", "value": -48.6}, {"measurement": "activity (bps speed delta vs control)", "setting": "[5]", "value": -53.9}, {"measurement": "activity (bps speed delta vs control)", "setting": "[6]", "value": -42.7}]}
